The labels stand for the following.
B1: Twister Ribozyme (parent)
chain: AACACUGCCAAUGCCGGUCCCAAGCCCGGAUAAAAGUGGAGGGGGCGG

The series covers variants of B1. The series can be described thus: self-cleavage, relative activity (ratio to wild type); higher = more cleavage; co-transcriptional.
In the case of AACACUGCCAAUGCCCGUCCCAAGCCCGGAUAAAAGUCGAGGGGGCGG [G16C G38C], the self-cleavage was found to be 0.572.

For AACACUGCCACUGCCGGUCCCAAGCCCGGAUAAAAGUGGUGGGGGCGG [A11C A40U], the self-cleavage is 0.153.

For AACACGGCCAAUGCCGGUCCCUAGCCCGGAUAAAAGUGGAGGGGGCGG [U6G A22U], the self-cleavage came to 0.136.

Consider ACCACUACCAAUGCCGGUCCCAAGCCCGGAUAAAAGUGGAGGGGGCGG [A2C G7A], for which the self-cleavage is 0.0438.

AACACUGCCAAUGCCCGUCCCCAGCCCGGAUAAAAGUGGAGGGGGCGG [G16C A22C]: the self-cleavage came to 0.198.

AACACUGCCAAUGCCGGCCCCAAGCCCGGAUAAACGUGGAGGGGGCGG [U18C A35C]: the self-cleavage is 0.641.

Consider AACACUGCCAAUGCCGGUCCCAAGUCUGGAUAAAAGUGGAGGGGGCGG [C25U C27U], for which the self-cleavage was found to be 0.74.

With AACACUGCCAAUGCCGGUCCCUAGCCCGGAUAAAAGUGGUGGGGGCGG [A22U A40U], the self-cleavage was found to be 0.128.

On to AACACUGCCAAUGCCGGUCCCAAGCCUGGACAAAAGUGGAGGGGGCGG [C27U U31C], for which the self-cleavage came to 0.651.

On to AACACUGCCAAUGCCGGUCCCAAGCCCGGAUCAAAGUGGACGGGGCGG [A32C G41C], for which the self-cleavage stood at 0.326.

Regarding AACCCCGCCAAUGCCGGUCCCAAGCCCGGAUAAAAGUGGAGGGGGCGG [A4C U6C], the self-cleavage turned out to be 0.0627.

Consider ACCACUGCCAAUGCCGGUCCCAAGCCCGGAUAAAAGCGGAGGGGGCGG [A2C U37C], for which the self-cleavage was 0.0354.

Take AACACUGCCAAUGCCGGUCGCAAGCCCGGAUAAGAGUGGAGGGGGCGG [C20G A34G]: the self-cleavage is 0.0924.

With AACACUGCCAAUGCCGGUCCCUAGCCCGGAUAAAAGUGGAGGGGGCGU [A22U G48U], the self-cleavage came to 0.911.

Regarding AACACUGCCAGAGCCGGUCCCAAGCCCGGAUAAAAGUGGAGGGGGCGG [A11G U12A], the self-cleavage worked out at 0.942.

In the case of AACACUGCCGAUUCCGGUCCCAAGCCCGGAUAAAAGUGGAGGGGGCGG [A10G G13U], the self-cleavage worked out at 0.79.

As for AAUACUGCCAAUGCCGGUCCCAAGCCCGGAUAAAGGUGGAGGGGGCGG [C3U A35G], the self-cleavage stood at 0.136.

Consider AACACUGCCAAUGCCGUGCCCAAGCCCGGAUAAAAGUGGAGGGGGCGG [G17U U18G], for which the self-cleavage is 0.106.

On to AACACUGCCCAUGCCGGUCCCAAGACCGGAUAAAAGUGGAGGGGGCGG [A10C C25A], for which the self-cleavage was found to be 0.0743.

Consider CACACUGCCAAUGCCGGUCCCAAGCCCUGAUAAAAGUGGAGGGGGCGG [A1C G28U], for which the self-cleavage amounted to 0.183.

With AACACUGCCAAUGCCGGUCCCAAGCCCGGAUAAUAGUGGAGGGGGCUG [A34U G47U], the self-cleavage came to 0.502.

For AACACUGGCUAUGCCGGUCCCAAGCCCGGAUAAAAGUGGAGGGGGCGG [C8G A10U], the self-cleavage came to 0.429.

With AACACUGCCAAUGCCGGUCCCAAGCCCGGAGAAAAGUGGAGGGGGAGG [U31G C46A], the self-cleavage is 1.1.

As for AACACUGCCAAUGCCGGUCCCGAGCCCGGAUAAAAGUGGAGGGGGCGA [A22G G48A], the self-cleavage came out at 0.246.

On to AACACUCCCAAUGCCGGUCCCAAGCCCGGAUAAUAGUGGAGGGGGCGG [G7C A34U], for which the self-cleavage was 0.067.

Turning to AACACUGCCAAUGCCGGUCCCAACCCCGGAAAAAAGUGGAGGGGGCGG [G24C U31A], the self-cleavage was 0.0517.

Take AACACUGCCAAUGCCGGUCCCAAGCCCGGAUAAAAGUAGAAGGGGCGG [G38A G41A]: the self-cleavage stood at 0.28.

As to AACACUUCCAAUGCCGGUCCCGAGCCCGGAUAAAAGUGGAGGGGGCGG [G7U A22G], the self-cleavage amounted to 0.0616.

In the case of GACACUGCCAAUGCCGGUCCCAAGCCCGGAUAAAAGGGGAGGGGGCGG [A1G U37G], the self-cleavage stood at 0.295.

On to AACACUGCCAAUGCCGGUCCCAAGUUCGGAUAAAAGUGGAGGGGGCGG [C25U C26U], for which the self-cleavage was found to be 0.132.

For AACACUGCCAAUGCCGGUCCCAGGCCCGGAUAAUAGUGGAGGGGGCGG [A23G A34U], the self-cleavage amounted to 0.15.

With AAAACUGCCAAUGCCGGUCCCAAGCCCGGAUAAAAGUGGAAGGGGCGG [C3A G41A], the self-cleavage amounted to 0.0897.

As to AACACUGUCAAUGCCGGUCCCAAGCCCGGAUAAAAGUGGAGCGGGCGG [C8U G42C], the self-cleavage was determined as 0.217.

Turning to AACACUGCCAAUGCCGGGCCCAAGCCCGUAUAAAAGUGGAGGGGGCGG [U18G G29U], the self-cleavage came to 0.0942.

For AACACGGCCAAUGCCGGUCCCAAGCCCGGAUAAGAGUGGAGGGGGCGG [U6G A34G], the self-cleavage worked out at 0.392.

With AACACUGCCAAUGCCCGUCCCACGCCCGGAUAAAAGUGGAGGGGGCGG [G16C A23C], the self-cleavage is 0.0636.

As to AACACAGCCAAUGCCGGUCCCAAGCCCGGAUAAAAGUGGAGGGGGCGU [U6A G48U], the self-cleavage was 0.782.

For the variant AACACUGCCGAUGCCGGUCCCAAGCCCGGAUAAAAGUGGAGGCGGCGG [A10G G43C], the self-cleavage turned out to be 0.262.

Regarding AACACUGCCAAUGCCGGUCCCAAGCGCGCAUAAAAGUGGAGGGGGCGG [C26G G29C], the self-cleavage was 0.134.

As for AACACUGUCAAUGACGGUCCCAAGCCCGGAUAAAAGUGGAGGGGGCGG [C8U C14A], the self-cleavage was found to be 0.63.

As to AACACUGCGAAUGCCGGUCCCAAGCCCGGAUAAAAGUGGAGAGGGCGG [C9G G42A], the self-cleavage is 0.12.

As to AACACUGCCAAUGCCGGUCCCAAGCCCGGAUAAAAGUGGAGGCGUCGG [G43C G45U], the self-cleavage is 0.275.

As to AACACUGCCAAUGCCGGUCCCAAGCCCCGAUAAAUGUGGAGGGGGCGG [G28C A35U], the self-cleavage was 0.806.

AACACUGCGAAUGCCGGUCCCAAGCCCGGAUAAAAGUGGAGGGGGCGA [C9G G48A]: the self-cleavage came out at 0.443.

In the case of AACACUGCCAAUGCCGGGCCCAAGCCCGGAUAAAAGUGGAGAGGGCGG [U18G G42A], the self-cleavage was 0.0696.

As to AACACUGCCAAUGGCGGUCCCGAGCCCGGAUAAAAGUGGAGGGGGCGG [C14G A22G], the self-cleavage was 0.0913.

For AACACCGCCAAUGCCGGUCCCAAACCCGGAUAAAAGUGGAGGGGGCGG [U6C G24A], the self-cleavage was 0.0737.

As to AACACUGCCAAUGCCGGUCCCAAGCCCGGAUAAAAGUCUAGGGGGCGG [G38C G39U], the self-cleavage was 0.164.

As for AACAGUGCGAAUGCCGGUCCCAAGCCCGGAUAAAAGUGGAGGGGGCGG [C5G C9G], the self-cleavage worked out at 0.125.

For AACACUGCGAAUGCCGCUCCCAAGCCCGGAUAAAAGUGGAGGGGGCGG [C9G G17C], the self-cleavage was 0.0619.

As for AACACUGCCAAUGCCGGUCCCAAGCCCGCAUAAAAGUGGAGGGGGCGA [G29C G48A], the self-cleavage was 0.56.

Regarding AACACUGCCAAUGCCGGUUCUAAGCCCGGAUAAAAGUGGAGGGGGCGG [C19U C21U], the self-cleavage turned out to be 0.0767.

Turning to AACACUUCCAAUGCCGGUCCCAAGCCCGGAUAAGAGUGGAGGGGGCGG [G7U A34G], the self-cleavage was 0.0851.

With AACACUGCCAAUGCCUGUCCCAAGCCCGGAUAAAAGUGGAAGGGGCGG [G16U G41A], the self-cleavage came out at 0.278.

The values are drawn from the RNAGym collection of RNA variant scans (doi:10.7554/elife.80360).
